The target of this assay is Death receptor 4 (DR4) on primary human pancreatic stellate cells (human) (UniProt O00220). The assay can be described thus: cell-based or functional assay.

In turn, “mapatumumab (human anti-DR4 antibody, Creative Biolabs)” registered a caspase-3/7 activity (apoptosis marker), culture-activated PSCs, 10^3 ng/mL of 1.27 fold.

The record behind these values is patent US20190119394A1.
